Measurements from patent US20190309044A1, “POLYPEPTIDES AND USES THEREOF AS A DRUG FOR TREATMENT OF AUTOIMMUNE DISORDERS” (Compugen Ltd., priority 2017, published 2019).

Tests used:
[1] = system: female C57BL/6 recipient mice; assay: HY bone marrow transplantation model, chimerism and T cell subtypes by FACS; assay type: in vivo, mouse
From the text: A transplantation model utilizing male bone marrow (BM) cells from C57BL/6 mice transplanted into female mice of the same starin was used to study whether C1ORF32 ECD-Fc induces immune tolerance. In this model BM cells of the male mouse are rejected by the female recipients due to mismatch in the minor histocompatibility antigen encoded by the Y chromosome (Hya). To allow identification of the male cells in the female mice blood, male mice expressing CD45.1 isotype were selected while the female mice carry CD45.2 isotype. This model provides a tool for testing the effect of potential drugs on induction of tolerance towards the grafted cells.
In this model, C1ORF32 ECD-Fc (SEQ ID NO:42) treatment started one week before bone marrow transplantation and continued for five weeks. Female recipient mice were followed for percentage of CD45.1+ and CD45.2+ cells present within the blood.
Female C57BL/6 recipient mice (CD45.2+) were sub-lethally irradiated with 200 rads/cGy 24 hours before transplantation of either female C57Bl/6 (CD45.1+) or male C57Bl/6 (CD45.1+) 5×10^6 bone marrow cells. Recipient mice were allocated into treatment groups as detailed below (n=6 per group). Treatments were given at 300 ug/dose i.p, 3×/wk starting one week prior to transplantation and continued for 4 weeks following transplantation, giving a total of 15 treatments during this 5 weeks period.
1. Female CD45.1 into female CD45.2 2. Male CD45.1 into female CD45.2+ anti-CD40L (300 ug/dose) (Clone MR-1; BioXCell, Cat#BE0017-1) 3. Male CD45.1 into female CD45.2+C1ORF ECD-Fc (SEQ ID NO:42) (300 ug/dose)2 4. Male CD45.1 into female CD45.2+ Control Ig (mouse IgG2a) (300 ug/dose)
Beginning at 2 weeks following bone marrow transplantation, blood samples from the tail were collected from each mouse once a week for 4 weeks. Approximately 2-3 drops of blood were collected per mouse into 200 ul of PBS+EDTA (50 mM), samples were spun down, and RBCs lysed with ammonium chloride. The cells were washed 3× with PBS, stained with the viability dye Aqua Dead Cell Stain (Invitrogen; Cat#L34957), blocked with Fc Receptor block (anti-mouse CD16/32; eBioscience; Cat#14-0161-86), and stained with anti-mouse CD45.1 APC-Cy7 (eBiosciences; Cat#47-0453-80) and anti-mouse CD45.2 FITC (eBioscience; Cat#11-0454-82). The analysis for chimerism was determined by flow cytometric analysis (on total live cells) for the percentage of CD45.1+ versus CD45.2+ cells present in the blood of female recipient mice.
During weeks 6, 7, and 8 the blood samples were also stained to determine the percentage of CD4+ Teff cells and CD4+ Treg cells present within the blood using the cellular markers CD44, CD25, and FoxP3. Details of the Abs used in the flow panels for weeks 6, 7, and 8 are listed below.

total splenocytes = assay: Ex vivo recall responses of splenocytes, HY bone marrow transplantation model; assay type: in vivo, mouse
Procedure: On week 8 post bone marrow cell transplantion, total splenocytes (5×10^5 cells/well) were cultured in the presence of medium alone (no stimulation), anti-CD3(1 ug/ml), DBY peptide (10 ug/ml), irradiated male splenocytes (5×10^5 cells/well), or irradiated female splenocytes (5×10^5 cells/well). The individual splenocyte samples were cultured separately in triplicate wells. For T cell proliferative response, the cultures were pulsed with 1 uCi of tritiated thymidine at 24 hours and harvested at 72 hours post culture initiation. The statistical analysis carried out on the data is one-way ANOVA followed by Dunnett's post test as compared to the mice receiving male CD45.1+ bone marrow cells plus Control Ig treatment, p-values *<0.05, **<0.01,***<0.001, and #<0.0001.
On week 8 post bone marrow cell transplant, total splenocytes (5×10^5 cells/well) were cultured in the presence of medium alone (no stimulation), anti-CD3 (1 ug/ml), DBY peptide (10 ug/ml), irradiated male splenocytes (5×10^5 cells/well), or irradiated female splenocytes (5×10^5 cells/well). The individual splenocyte samples were cultured separately in triplicate wells. For the cytokine cultures, the supernatants were collected at 72 hours post culture initiation and the level of secreted cytokine was determined via LiquiChip. […]
These same populations of cells were analyzed at week 8 within the spleen. […]

B1: C1ORF32 ECD-Fc (SEQ ID NO:42): human-mouse fusion protein: human C1ORF32 ECD fused to mouse immunoglobulin Fc (SEQ ID NO:42) (protein)
chain: LQVTVPDKKKVAMLFQPTVLRCHFSTSSHQPAVVQWKFKSYCQDRMGESLGMSSTRAQSLSKRNLEWDPYLDCLDSRRTVRVVASKQGSTVTLGDFYRGREITIVHDADLQIGKLMWGDSGLYYCIITTPDDLEGKNEDSVELLVLGRTGLLADLLPSFAVEIMGSENLYFQGSGEPRGPTIKPCPPCKCPAPNLLGGPSVFIFPPKIKDVLMISLSPIVTCVVVDVSEDDPDVQISWFVNNVEVHTAQTQTHREDYNSTLRVVSALPIQHQDWMSGKEFKCKVNNKDLPAPIERTISKPKGSVRAPQVYVLPPPEEEMTKKQVTLTCMVTDFMPEDIYVEWTNNGKTELNYKNTEPVLDSDGSYFMYSKLRVEKKNWVERNSYSCSVVHEGLHNHHTTKSFSRTPGK
modifications: Fusion protein human C1ORF32-ECD fused to mouse IgG2a Fc
[1]; by week 4 post transplantation, maintained until week 8, 300 ug/dose i.p. 3x/wk 5 weeks
  male CD45.1+ cells in the blood of recipient females: highly significant number of male CD45.1+ cells were present
[1]; week 6, vs Control Ig
  effector/memory CD4+ T cells (CD45.1+/CD4+/CD44hi) in blood: decrease
[1]; week 8, vs Control Ig
  CD45.2+ and CD4+ T cells within the spleen: lower percentage and number
  donor Tregs (FoxP3+CD25+) in blood: significant increase
  donor activated CD4+ T cells (FoxP3-CD25+) in blood: decrease
  donor effector/memory CD4+ T cells (CD44hi) in blood: significant increase
  recipients' CD45.2+ T cell populations in blood: No differences
Total splenocytes; activation with irradiated male splenocytes
  IL-10 and IL-4: increased level
Total splenocytes; week 8 splenocytes, in response to male or female splenocytes
  IL-10 and IL-4 secretion: significantly increased
